Earlier results on two substances are cited in article PMC3134397.

One series addresses RAE-1β (Mus musculus) (UniProt O08603). In words: AUC.
Another series addresses RAE-1γ (Mus musculus) (UniProt O08604). In words: AUC.
In the next series the target is RAE-1δ (Mus musculus) (UniProt Q9JI58). The series is described as follows: AUC.
Series [1] has as its target UL18 (Human betaherpesvirus 5) (UniProt P08560). The series is described as follows: SPR.

UniProt O08604, sequence (O08604 29-227): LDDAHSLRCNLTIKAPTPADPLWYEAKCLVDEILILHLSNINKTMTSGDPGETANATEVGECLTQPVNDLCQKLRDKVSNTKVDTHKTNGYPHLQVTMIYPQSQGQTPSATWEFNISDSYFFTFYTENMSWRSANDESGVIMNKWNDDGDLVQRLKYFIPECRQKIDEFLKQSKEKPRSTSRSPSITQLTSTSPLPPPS
UniProt O08603, sequence (O08603 29-229): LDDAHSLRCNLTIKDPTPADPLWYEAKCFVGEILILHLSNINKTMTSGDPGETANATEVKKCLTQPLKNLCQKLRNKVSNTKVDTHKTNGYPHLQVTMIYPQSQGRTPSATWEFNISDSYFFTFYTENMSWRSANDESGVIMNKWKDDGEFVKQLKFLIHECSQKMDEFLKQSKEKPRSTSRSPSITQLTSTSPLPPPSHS
UniProt Q9JI58, sequence (Q9JI58 29-225, stated change not applied): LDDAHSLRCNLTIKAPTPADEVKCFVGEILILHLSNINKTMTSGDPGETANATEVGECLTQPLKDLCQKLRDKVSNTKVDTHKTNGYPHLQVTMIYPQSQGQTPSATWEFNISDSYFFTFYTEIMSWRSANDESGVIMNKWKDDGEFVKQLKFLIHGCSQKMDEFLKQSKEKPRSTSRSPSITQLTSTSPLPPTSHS

Take m152 (from UniProt Q83156): the dissociation constant (Kd) is 3 µM with RAE-1β (Mus musculus), 1 µM with RAE-1γ (Mus musculus) and 30 µM in the series with RAE-1δ (Mus musculus).

On to LIR1 (from UniProt Q8NHL6), for which, in series [1], the Kd was 0.01 µM.
